In patent US11845963B2, “HSD17B13 variants and uses thereof” (Regeneron Pharmaceuticals, Inc., priority 2017, dated 2023):
Entries after “also recorded” stand apart in the source; their conditions may differ.

Assays:
[1] = molecular target: T1, recombinant human HSD17B13 (Homo sapiens, UniProt Q7Z5P4); assay: Substrate screening of steroid and bioactive lipid libraries against purified recombinant HSD17B13 (NADH-Glo); type: biochemical; settings: 265 unique putative substrates tested
T1 sequence (Q7Z5P4 20-300): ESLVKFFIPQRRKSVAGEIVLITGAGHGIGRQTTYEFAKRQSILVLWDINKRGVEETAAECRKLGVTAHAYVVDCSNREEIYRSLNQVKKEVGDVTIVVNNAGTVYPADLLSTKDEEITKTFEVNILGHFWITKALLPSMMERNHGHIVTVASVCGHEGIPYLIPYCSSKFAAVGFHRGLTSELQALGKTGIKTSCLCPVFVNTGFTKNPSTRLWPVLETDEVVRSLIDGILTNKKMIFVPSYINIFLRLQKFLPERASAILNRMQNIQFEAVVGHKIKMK
Description: Reactions were performed in a final volume of 40 μl of assay buffer (0.2 M Tris-HCl, pH 7.5) which contained 500 μM NAD^+, 5 μM bioactive lipid or 50 μM steroid (all in a final concentration of 5% DMSO), and 100 ng recombinant human HSD17B13. Reactions were incubated for 3 hours, at 23° C. after which an equal volume NADH-Glo Detection Reagent (Promega) was added. Following a 1 hour incubation at 23° C., the relative light units (RLUs) were measured on an Envision Plate Reader (Perkin Elmer). Raw RLU values were normalized as percent of control (50 μM estradiol) following subtraction of negative control (5% DMSO) using the following formula: Percent of control (POC)=100×(Sample (RLU)−Negative CTRLaverage)/(Positive CTRLaverage−Negative CTRLaverage).

[2] = system: HepG2 cells overexpressing HSD17B13 Transcript A or D or GFP; assay: Quantification of intracellular triglyceride content in stable cell lines; type: cell-based, human; settings: for intracellular triglyceride content of overexpressing cell lines versus GFP control: with oleic acid treatment, FIG. 10
Description: HepG2 cells were cultured in Eagle's Minimum Essential Medium supplemented with 10% fetal bovine serum. HSD17B13 transcripts A and D were sub-cloned into Myc-DDK backbone lentivirus constructs, and lentivirus were generated. HepG2 cells were infected with lentivirus carrying the HSD17B13 transcripts. Stable cell lines expressing each HSD17B13 transcript were selected with 1-3 mg/ml Geneticin G-418 sulfate in complete culture medium for two weeks. Following fixation, HSD17B13 isoforms were detected with mouse anti-Myc antibody. Lipid droplets were labeled with BODIPY FL dye (Sigma). Secondary antibodies for immunofluorescence were Alexa Fluor 488 donkey anti-rabbit IgG and Alexa Fluor 594 donkey anti-mouse IgG (Jackson ImmunoResearch).
The triglyceride (TG) content from the stable cells was determined using a TG quantification kit (Abcam). In the assay, TG are converted to free fatty acids and glycerol. The glycerol is then oxidized to generate a product which is quantified (spectrophotometry at λ=570 nm).

[3] = system: HEK293 cells overexpressing HSD17B13 transcript A, transcript D or GFP; assay: Cell-based conversion of estradiol to estrone in culture media, LC-MS; parameters: species or system human; settings: overexpressed in HEK293 cells; FIG. 4F
Description: HEK293 cells overexpressing HSD17B13 transcript A, transcript D or green fluorescent protein (GFP, control) were used to investigate the activity of HSD17B13 against estradiol in a cell-based assay. Estradiol (1 μM) was fed to each cell type. After 48 hours, the media was collected and the concentration of estradiol and its converted product estrone were identified and quantified by LC-MS.

[4] = molecular target: T2, recombinant human HSD17B13 (Homo sapiens, UniProt Q7Z5P4); assay: In vitro enzymatic activity of purified recombinant HSD17B13 isoforms A and D (NADH production, NAD(P)H-Glo); type: biochemical; settings: FIG. 4E
T2 construct: Transcript A, which encodes the full-length 300 amino acid protein; 10xHis (C); host or cells: E. coli
T2 sequence (Q7Z5P4 with tags, fused parts or gaps): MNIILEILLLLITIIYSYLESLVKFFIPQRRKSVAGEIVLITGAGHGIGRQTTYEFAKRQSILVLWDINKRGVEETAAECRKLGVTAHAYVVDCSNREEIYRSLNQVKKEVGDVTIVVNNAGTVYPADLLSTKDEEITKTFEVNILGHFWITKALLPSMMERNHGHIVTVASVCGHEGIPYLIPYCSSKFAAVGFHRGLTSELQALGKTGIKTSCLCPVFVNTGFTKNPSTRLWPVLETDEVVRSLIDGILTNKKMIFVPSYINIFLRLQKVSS
Description: Recombinant human HSD17B13 protein was purified from E. coli (Genscript) transformed with plasmid DNA harboring HSD17B13 transcript A or transcript D. The HSD17B13 variants contained a 10×His tag at the C terminus and were purified from soluble fraction using a Ni2^+ affinity purification. Enzymatic activity was determined through measurement of NADH production using the NAD(P)H-Glo Detection System (Promega). Reactions were performed for 3 hours at 25° C. in 0.2 M Tris-HCl, pH 7.5, 0.5 mM NAD^+, 75 μM of substrate (Sigma) and 500 ng purified enzyme in a final volume of 100 μL. After incubation, 20 μL of the reaction was combined with 20 μL luciferase reagent (Promega), incubated at room temperature for 1 hour and read on an Envision Plate Reader (Perkin Elmer).

In the case of CCCCC/C=C\C[C@@H](O)/C=C/C=C/C=C\[C@@H](O)CCCC(=O)O [leukotriene B4], the “identified as enzymatic substrate of HSD17B13” value [1] is reported as “enzymatic substrates of HS17B13”.

In the case of CCCCCCCC/C=C\CCCCCCCC(=O)O [oleic acid, reference compound], the “triglyceride (TG) content after oleic acid treatment” value ([2]; increasing concentrations of oleic acid, control (GFP), HSD17B13 transcript A and D HepG2 cell lines, FIG. 10B) is reported as “increased triglyceride (TG) content to a similar extent”.

B1: HSD17B13 isoform D: HSD17B13 protein Isoform D, SEQ ID NO:42; prematurely truncated protein encoded by Transcript D of the rs72613567 variant (protein)
chain: T2 sequence (Q7Z5P4 with tags, fused parts or gaps)
modifications: homo sapien
notes: prematurely truncated protein encoded by Transcript D of the rs72613567 variant
In the case of B1, the “conversion of estradiol (substrate) to estrone (product) measured in the culture media” value [3] is reported as “did not show much conversion; also recorded: greatly reduced activity towards estradiol”, the “intracellular triglyceride content of overexpressing cell lines versus GFP control” value [2] is reported as “No differences in intracellular triglyceride content” and the “activity towards estradiol in vitro compared to HSD17B13 isoform A” value ([4]; recombinant protein, NAD+ cofactor) is reported as “greatly reduced activity towards estradiol”. For the same molecule, the “enzymatic activity of the corresponding values for isoform A” value ([4]; substrates 17-beta estradiol, leukotriene B4 (LTB4), 13(S)-HODE) was less than 10%.

B2: HSD17B13 isoform A: HSD17B13 protein Isoform A, SEQ ID NO:39; full-length 300 amino acid protein encoded by Transcript A (protein)
chain: MNIILEILLLLITIIYSYLESLVKFFIPQRRKSVAGEIVLITGAGHGIGRQTTYEFAKRQSILVLWDINKRGVEETAAECRKLGVTAHAYVVDCSNREEIYRSLNQVKKEVGDVTIVVNNAGTVYPADLLSTKDEEITKTFEVNILGHFWITKALLPSMMERNHGHIVTVASVCGHEGIPYLIPYCSSKFAAVGFHRGLTSELQALGKTGIKTSCLCPVFVNTGFTKNPSTRLWPVLETDEVVRSLIDGILTNKKMIFVPSYINIFLRLQKFLPERASAILNRMQNIQFEAVVGHKIKMK
modifications: homo sapien
notes: full-length 300 amino acid protein encoded by Transcript A
B2 was tested, and the “conversion of estradiol (substrate) to estrone (product) measured in the culture media” value [3] was “showed robust conversion” and the “intracellular triglyceride content of overexpressing cell lines versus GFP control” value [2] was “No differences in intracellular triglyceride content”.
